Experimental data taken from publication PMC3431625.

Key:
[1] = target: Bovine collagen type IV (bovine) (UniProt Q7SIB2); assay: ELISA
[2] = target: Pepsinized collagen type II (UniProt P02459); assay: ELISA
Pepsinized collagen type II, sequence (P02459 26-1487): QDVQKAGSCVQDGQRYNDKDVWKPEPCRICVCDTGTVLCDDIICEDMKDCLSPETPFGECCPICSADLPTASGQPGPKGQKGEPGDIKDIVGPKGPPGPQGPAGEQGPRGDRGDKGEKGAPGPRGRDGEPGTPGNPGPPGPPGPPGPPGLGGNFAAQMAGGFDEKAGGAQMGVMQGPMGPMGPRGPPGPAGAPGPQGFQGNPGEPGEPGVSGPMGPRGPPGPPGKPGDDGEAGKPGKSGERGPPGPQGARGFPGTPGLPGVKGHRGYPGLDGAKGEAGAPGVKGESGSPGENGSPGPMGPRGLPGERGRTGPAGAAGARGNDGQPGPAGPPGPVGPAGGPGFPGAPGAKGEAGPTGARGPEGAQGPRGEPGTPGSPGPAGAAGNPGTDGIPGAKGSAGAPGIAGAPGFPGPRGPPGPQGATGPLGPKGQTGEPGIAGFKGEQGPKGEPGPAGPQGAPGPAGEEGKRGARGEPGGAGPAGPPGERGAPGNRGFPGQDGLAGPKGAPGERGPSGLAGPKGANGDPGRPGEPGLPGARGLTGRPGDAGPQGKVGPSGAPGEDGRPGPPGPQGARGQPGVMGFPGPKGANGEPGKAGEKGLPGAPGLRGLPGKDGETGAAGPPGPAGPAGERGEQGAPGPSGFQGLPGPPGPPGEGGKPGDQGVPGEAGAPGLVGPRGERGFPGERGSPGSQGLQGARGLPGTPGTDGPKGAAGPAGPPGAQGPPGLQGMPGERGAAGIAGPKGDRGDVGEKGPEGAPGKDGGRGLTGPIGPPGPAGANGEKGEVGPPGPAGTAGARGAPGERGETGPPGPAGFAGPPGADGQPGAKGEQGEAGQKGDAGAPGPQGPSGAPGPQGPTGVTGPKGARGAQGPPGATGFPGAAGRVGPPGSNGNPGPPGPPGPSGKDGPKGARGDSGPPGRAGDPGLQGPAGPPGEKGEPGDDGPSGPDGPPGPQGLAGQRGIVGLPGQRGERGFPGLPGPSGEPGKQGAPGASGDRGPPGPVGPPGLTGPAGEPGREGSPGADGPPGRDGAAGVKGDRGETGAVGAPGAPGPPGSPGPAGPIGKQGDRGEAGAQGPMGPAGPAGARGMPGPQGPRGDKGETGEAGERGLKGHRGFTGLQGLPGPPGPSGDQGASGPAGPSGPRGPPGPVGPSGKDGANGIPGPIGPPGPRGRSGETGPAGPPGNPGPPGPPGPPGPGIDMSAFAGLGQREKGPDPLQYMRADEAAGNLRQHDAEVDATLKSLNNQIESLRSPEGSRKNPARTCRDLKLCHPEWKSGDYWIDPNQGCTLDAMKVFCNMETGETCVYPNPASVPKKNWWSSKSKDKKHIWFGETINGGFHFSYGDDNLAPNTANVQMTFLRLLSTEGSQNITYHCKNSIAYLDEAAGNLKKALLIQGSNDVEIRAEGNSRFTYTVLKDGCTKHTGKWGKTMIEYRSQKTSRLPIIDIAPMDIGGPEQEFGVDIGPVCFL

Bovine collagen type IV (bovine), sequence (Q7SIB2 28-1669, chain 1 of 2): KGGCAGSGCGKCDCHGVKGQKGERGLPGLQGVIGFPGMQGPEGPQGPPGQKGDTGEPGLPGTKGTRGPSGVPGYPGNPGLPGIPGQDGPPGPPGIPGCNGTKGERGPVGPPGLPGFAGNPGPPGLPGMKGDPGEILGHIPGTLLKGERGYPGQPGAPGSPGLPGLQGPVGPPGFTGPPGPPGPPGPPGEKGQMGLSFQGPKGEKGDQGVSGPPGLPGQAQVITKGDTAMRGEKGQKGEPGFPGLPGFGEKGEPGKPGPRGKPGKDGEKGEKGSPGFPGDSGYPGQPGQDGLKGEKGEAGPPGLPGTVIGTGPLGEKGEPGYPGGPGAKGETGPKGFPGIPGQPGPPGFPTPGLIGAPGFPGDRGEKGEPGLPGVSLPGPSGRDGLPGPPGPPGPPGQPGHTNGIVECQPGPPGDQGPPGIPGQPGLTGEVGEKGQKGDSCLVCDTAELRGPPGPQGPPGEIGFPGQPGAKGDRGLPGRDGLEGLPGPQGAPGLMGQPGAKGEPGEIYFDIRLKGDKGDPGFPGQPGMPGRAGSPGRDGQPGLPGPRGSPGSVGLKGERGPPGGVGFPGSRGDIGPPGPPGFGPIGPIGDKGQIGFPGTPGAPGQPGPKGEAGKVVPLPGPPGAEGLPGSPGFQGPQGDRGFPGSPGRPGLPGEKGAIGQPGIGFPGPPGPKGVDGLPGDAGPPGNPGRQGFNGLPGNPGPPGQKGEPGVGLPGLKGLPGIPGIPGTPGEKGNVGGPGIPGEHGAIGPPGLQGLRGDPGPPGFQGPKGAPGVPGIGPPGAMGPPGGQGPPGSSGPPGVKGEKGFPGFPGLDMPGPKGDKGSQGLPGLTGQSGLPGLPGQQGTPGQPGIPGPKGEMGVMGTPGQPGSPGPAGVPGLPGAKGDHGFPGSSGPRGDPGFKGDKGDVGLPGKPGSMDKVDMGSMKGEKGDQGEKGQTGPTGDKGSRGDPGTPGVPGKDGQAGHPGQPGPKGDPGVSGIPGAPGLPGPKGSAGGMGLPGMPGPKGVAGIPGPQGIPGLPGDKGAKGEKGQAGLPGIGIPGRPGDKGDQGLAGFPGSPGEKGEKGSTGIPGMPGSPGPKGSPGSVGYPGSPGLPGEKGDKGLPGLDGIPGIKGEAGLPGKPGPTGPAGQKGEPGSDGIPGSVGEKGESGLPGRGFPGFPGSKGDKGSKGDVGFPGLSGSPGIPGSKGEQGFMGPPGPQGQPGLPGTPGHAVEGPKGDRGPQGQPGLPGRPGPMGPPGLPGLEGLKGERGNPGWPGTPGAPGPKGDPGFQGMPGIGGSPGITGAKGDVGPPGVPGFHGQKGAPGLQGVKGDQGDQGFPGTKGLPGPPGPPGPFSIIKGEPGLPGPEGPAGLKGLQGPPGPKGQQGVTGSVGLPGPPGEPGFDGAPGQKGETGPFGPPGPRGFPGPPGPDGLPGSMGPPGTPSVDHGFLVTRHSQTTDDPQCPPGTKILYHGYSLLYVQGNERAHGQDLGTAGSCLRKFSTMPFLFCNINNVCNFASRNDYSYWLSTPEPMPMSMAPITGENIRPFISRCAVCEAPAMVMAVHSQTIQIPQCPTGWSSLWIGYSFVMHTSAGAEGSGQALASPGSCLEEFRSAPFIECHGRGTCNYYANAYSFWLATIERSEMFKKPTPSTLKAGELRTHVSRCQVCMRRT
Bovine collagen type IV (bovine), sequence (Q7SIB3 whole entry, chain 2 of 2, further chain): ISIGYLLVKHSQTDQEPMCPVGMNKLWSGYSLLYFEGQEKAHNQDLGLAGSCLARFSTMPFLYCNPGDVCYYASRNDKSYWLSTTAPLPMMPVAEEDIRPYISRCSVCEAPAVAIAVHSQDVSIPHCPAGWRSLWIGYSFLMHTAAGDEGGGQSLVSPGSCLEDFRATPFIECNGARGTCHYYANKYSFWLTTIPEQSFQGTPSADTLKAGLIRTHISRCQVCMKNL

B1: Recombinant bovine opticin (natural protein)
chain: ASLSEEREGDPYAILHLGDYVLSLDNYDEVIDPSNYDELIDYGDQLPQVKGTSLASLTRTRFTQSTEAARTLPSNPTTARPPTLGLLAAPANHGLPTCLICVCLGSSVYCDDADLENIPPLPQTTAYLYARFNRISHIRAGDFKGLTKLKRIDLSGNSISSIDDKALRLLPALRDLILPENKLVALPTLPTSIEVLDVRMNRLQSSGIQPEAFRALEKLQFLYLADNLLDAIPPSLPLSLRSLHLQNNMIETMQRDAFCDAEEHRHTRRPLEDIRLDGNPINLSLFPSAYFCLPRLPTGRFV
[1]
  Kd: 500 nM
[2]
  Kd: 40 nM
